Test system: E. necator
Assay: Leaf disc assay, dry inoculum (settling tower), decrease in disease severity / hyphal growth (Example 2)
Conditions: decrease in disease severity (hyphal growth) relative to untreated control, value ± SE; for % decrease =/− SE TP1: time point 1 (untreated control hyphal growth ≥50%); for % decrease =/− SE TP2: time point 2

| Molecule | % decrease =/− SE TP1 [%] | % decrease =/− SE TP2 [%] |
| --- | --- | --- |
| GS1816: dsRNA trigger SEQ ID NO 174; gene target Plasma membrane ATPase (nucleic acid) DNA: CAACCACTGAGACTTGTTCAATACATGATACACAATAGCAATCACTATCGTGACAGCAATAGAATAGCCCCAGACAACAATAATAGTGACAATGGAGGTTCTTCCGTCAGTAGATAAAAGGGAGTTTAATGTGGCAGGATCTGAAGGCTCACCAGCACCGCCAGTTAACCAACCAAAGAGACAGAAGAGAGTTGCAAGTACATCAACACCGAATATAGCAGCAACGAGTGCAAATGCAGGATAAGTCTCATCTCCTCTGGTGACAAAGATGAGCCAGTTTTCGGTGAGAGAAATTTGAAGGAATAACATTCCCTGGATAGATCCAAAGTTATCAATCATGCCACCATTAGGTAAGAAAAGCGAGCCACGTAATACCCATGTTCCAAGAGCAAGCAATATGCCAAGAACAACAGAGATAATCCAGATTTTAGGTAATTGCCACTCAACAGGTCGAATCTCAAAGTGAGCGTTGTCGTATGCAACTGCAATTGTGGCTAAATCGGCAAAAAGTGCAAGGAAGACAATTAAATCAACCCGGACAGTTTCGTTAATAATGATCATAGAGGTTACAAGATAGATTTCTAAGTGTAAACATAA | 61 ± 2 | 50 ± 7 |
| GS3928 (nucleic acid) sense: UUGAAGUGGUUAAAAAACAUGUUGAGGAAACAGAAUGGGAAGAAGAACCUUCCAAGAAUGGAAGACUUGAUAUUGAUAUAAUAACCGCGGAAGCAAUGACACUUGCUCAUCAAAUUGCAAGUGGUGAGAAGACUAAAUAUGAUCUCAUCGAUGAAGGUUGGAAUAAAAAUUCAUUCAAGGAUCGCGAUGGCCUUCCUGAUUGGUUUCUGGAUGAUGAGAGUAAACAUGAUAAACCUCAUAGACCUAUCAGUGCUGCCGCUGCAAAUGCUAUAAAAGAAAAGCUGCGAGCCCUGAAUGCUCGACCAAUCAAAAAAGUACGUGAGGCUAAGAGUCGGAAAAAAUUCAAAGCUGCCCAACGACUUGAAAAACUCCGAAAAAAAU antisense: AUUUUUUUCGGAGUUUUUCAAGUCGUUGGGCAGCUUUGAAUUUUUUCCGACUCUUAGCCUCACGUACUUUUUUGAUUGGUCGAGCAUUCAGGGCUCGCAGCUUUUCUUUUAUAGCAUUUGCAGCGGCAGCACUGAUAGGUCUAUGAGGUUUAUCAUGUUUACUCUCAUCAUCCAGAAACCAAUCAGGAAGGCCAUCGCGAUCCUUGAAUGAAUUUUUAUUCCAACCUUCAUCGAUGAGAUCAUAUUUAGUCUUCUCACCACUUGCAAUUUGAUGAGCAAGUGUCAUUGCUUCCGCGGUUAUUAUAUCAAUAUCAAGUCUUCCAUUCUUGGAAGGUUCUUCUUCCCAUUCUGUUUCCUCAACAUGUUUUUUAACCACUUCAA | 15 ± 6 | 9 ± 7 |
| GS3929 (nucleic acid) sense: AUUGUUGAUAAGUUCACUGGAAAUCUCCGUUAUAGGAUCUAUUCCUUCAUUUUGUUUCCGGAGUUUUUCUUCUUGUCGAGCACUCAUUUUGGUAGAGAAUGCCCAACAUGAAAGGCCCAAUUCGCGACAUACUAUGCACACAUCUAGACGAGGCGCAGUUUUGUCUUUCGUUAUCGCAAUUCCAAUGCAACGACGACAUUGUAAGACAAAAUUCUCAUGACCAAUUUUAGUAACCAAGUGAUCUCUGUUACUUCGAGGACCAAGACAAUUUUUGUGGAUUGAAGUUGAGCAUCCUUGACAGUAAAUAAGUUGGCUUGGGCCCUUGUUCGAAUUUCUCUCAUUUCCAAAGCAAACAUCACAAAAUUUAUUAUGAAAACUUCGAAAUAAAUUUU antisense: AAAAUUUAUUUCGAAGUUUUCAUAAUAAAUUUUGUGAUGUUUGCUUUGGAAAUGAGAGAAAUUCGAACAAGGGCCCAAGCCAACUUAUUUACUGUCAAGGAUGCUCAACUUCAAUCCACAAAAAUUGUCUUGGUCCUCGAAGUAACAGAGAUCACUUGGUUACUAAAAUUGGUCAUGAGAAUUUUGUCUUACAAUGUCGUCGUUGCAUUGGAAUUGCGAUAACGAAAGACAAAACUGCGCCUCGUCUAGAUGUGUGCAUAGUAUGUCGCGAAUUGGGCCUUUCAUGUUGGGCAUUCUCUACCAAAAUGAGUGCUCGACAAGAAGAAAAACUCCGGAAACAAAAUGAAGGAAUAGAUCCUAUAACGGAGAUUUCCAGUGAACUUAUCAACAAU |  | 19 ± 7 |
| GS3930 (nucleic acid) sense: CUAACGAGUGAUCGAAGCCCAUCUGAAAGAUUUUGAGUUAUGCUUUUACCAACUAUUACAGUAUCUGAGCUCAGUCGCGAGAGUAAAUCCCCGACUCGAUUGGCGUCAAAGAACUCGGCAUCUUGUACAAAUGUCCUUCGAAAUAAUUUUGAUCGGAGUCUUGAAAUUACUCUUUCUCCAACUAUUCUCAGAAUUAAUAUCCGUCCAUAAUUAGCUACAGCACCUAUUGAUAGUAUAAGCCCAAGAGCCCCGAAAAAUUGUUGAUUAUUAAGUUCAAAAAGUGUGUUUCCUUCUGAGUUUUUGGUUGCAAGGUCUAAUAUUUUACCGAUUGAAAAAGGAAUUGCCAUUGAUAUGGAUGAAGAUACUAAUAAAAAGAAAAAUGCCAAACUGAGC antisense: GCUCAGUUUGGCAUUUUUCUUUUUAUUAGUAUCUUCAUCCAUAUCAAUGGCAAUUCCUUUUUCAAUCGGUAAAAUAUUAGACCUUGCAACCAAAAACUCAGAAGGAAACACACUUUUUGAACUUAAUAAUCAACAAUUUUUCGGGGCUCUUGGGCUUAUACUAUCAAUAGGUGCUGUAGCUAAUUAUGGACGGAUAUUAAUUCUGAGAAUAGUUGGAGAAAGAGUAAUUUCAAGACUCCGAUCAAAAUUAUUUCGAAGGACAUUUGUACAAGAUGCCGAGUUCUUUGACGCCAAUCGAGUCGGGGAUUUACUCUCGCGACUGAGCUCAGAUACUGUAAUAGUUGGUAAAAGCAUAACUCAAAAUCUUUCAGAUGGGCUUCGAUCACUCGUUAG | 10 ± 4 |  |
| GS3931 (nucleic acid) sense: AUCAAUUUUUCAUUCUCCCUAAUAGAUUUGAUAUCCCGUUCUUUGAGAUAACUUAAUUCCUCUUUUAUGUCUUUUAGCUUUUUUUCUGCAGUCGCAAUUAGAGUCUCUUUUUCAGCAAUUUGAUCUUGAAGCUCAUUUUCUCUUUUUAAAAACUCUUCACGAUCAUCUUUUUCUAAUGCAAUUGGCGUAGAUGAGCGAUCUAAUAACGUUGAAGCUUCCGAUCUAGAUUCUACCUGCAGCCUAGAAGGAGUUGCAGGUCUUGGUGUUUUUAUUUUAGAAAGAUUAGCAGUAUCUAAAGGUGGUACCCAUUUUUCUUUAGGCACACUAUCUCCAGACCUCCACUGCUGAACUUCUGCAUCAAGUGUCUGUACAUAUUGUUCAAAUGUAGUAA antisense: UUACUACAUUUGAACAAUAUGUACAGACACUUGAUGCAGAAGUUCAGCAGUGGAGGUCUGGAGAUAGUGUGCCUAAAGAAAAAUGGGUACCACCUUUAGAUACUGCUAAUCUUUCUAAAAUAAAAACACCAAGACCUGCAACUCCUUCUAGGCUGCAGGUAGAAUCUAGAUCGGAAGCUUCAACGUUAUUAGAUCGCUCAUCUACGCCAAUUGCAUUAGAAAAAGAUGAUCGUGAAGAGUUUUUAAAAAGAGAAAAUGAGCUUCAAGAUCAAAUUGCUGAAAAAGAGACUCUAAUUGCGACUGCAGAAAAAAAGCUAAAAGACAUAAAAGAGGAAUUAAGUUAUCUCAAAGAACGGGAUAUCAAAUCUAUUAGGGAGAAUGAAAAAUUGAU | 14 ± 4 |  |

From patent US12077763B2, “RNA-based control of powdery mildew” (Greenlight Biosciences, Inc., priority 2021, dated 2024)
